{"source": "patent US20100221183A1", "about": "“PEPTIDES FOR TREATING AND DIAGNOSING CANCERS AND METHODS FOR USING THE SAME” (priority 2006, published 2010)", "molecules": {"B1": {"name": "synthetic epitope of Hsc71 (GIPPAPRGVPQIEVTF) (peptide)", "peptide": "Biotin-GIPPAPRGVPQIEVTF", "notes": "Amino acids 463-478 of Hsc71, synthesized with N-terminal biotin"}, "B2": {"name": "PanC (DYWDTSWPLLLFGGGC) (peptide)", "peptide": "DYWDTSWPLLLFGGGC", "modifications": "also: radiolabeled with 99mTc, site not given here, unlabeled form also used", "notes": "also called peptide PanC"}}, "key": {"CCD-1070Sk (fibroblasts)": {"tested_on": "CCD-1070Sk (fibroblasts)", "assay": "Cell internalization of fluorescein labeled peptide (fluorescent microscopy)", "format": "cell-based", "settings": "fibroblasts CCD-1070Sk; 25 μM peptide, one hour at 37C", "protocol": "(§1) […], DU-145, and CCD-1070Sk were grown in culture as detailed above. Cells were grown on coverslips in 6 well plates. A 25 μM solution of peptide […]-fluorescein (PanF; SEQ ID NO:12) was prepared in modified Eagle's medium. Cell culture media were replaced with 1.6 mL of peptide-containing medium, and the cells were incubated with peptide for one hour at 37C. Medium was removed and cells were washed three times with PBS. Two mL of 2% formaldehyde in PBS was added to each well, and plates were kept on ice for 15 minutes. Cells were washed with cold PBS three times and rinsed with distilled water. Coverslips were mounted with DAPI containing media and viewed with an Olympus BX51 fluorescent microscope and DP70 digital camera with excitation and emission wavelengths of 490 and 520 nm."}, "DU-145 (prostate cancer)": {"tested_on": "DU-145 (prostate cancer)", "assay": "Cell internalization of fluorescein labeled peptide (fluorescent microscopy)", "format": "cell-based", "settings": "prostate cancer DU-145; 25 μM peptide, one hour at 37C", "protocol": "as §1"}, "NCI-H460 (lung cancer)": {"tested_on": "NCI-H460 (lung cancer)", "assay": "Cell internalization of fluorescein labeled peptide (fluorescent microscopy)", "format": "cell-based", "settings": "25 μM peptide, one hour at 37C", "protocol": "as §1"}, "Hsp70": {"molecular_target": "T1, Hsp70 (Homo sapiens, UniProt P0DMV8)", "T1 construct": "purchased BioVision, Mountain View, Calif", "T1 sequence (P0DMV8 whole entry)": "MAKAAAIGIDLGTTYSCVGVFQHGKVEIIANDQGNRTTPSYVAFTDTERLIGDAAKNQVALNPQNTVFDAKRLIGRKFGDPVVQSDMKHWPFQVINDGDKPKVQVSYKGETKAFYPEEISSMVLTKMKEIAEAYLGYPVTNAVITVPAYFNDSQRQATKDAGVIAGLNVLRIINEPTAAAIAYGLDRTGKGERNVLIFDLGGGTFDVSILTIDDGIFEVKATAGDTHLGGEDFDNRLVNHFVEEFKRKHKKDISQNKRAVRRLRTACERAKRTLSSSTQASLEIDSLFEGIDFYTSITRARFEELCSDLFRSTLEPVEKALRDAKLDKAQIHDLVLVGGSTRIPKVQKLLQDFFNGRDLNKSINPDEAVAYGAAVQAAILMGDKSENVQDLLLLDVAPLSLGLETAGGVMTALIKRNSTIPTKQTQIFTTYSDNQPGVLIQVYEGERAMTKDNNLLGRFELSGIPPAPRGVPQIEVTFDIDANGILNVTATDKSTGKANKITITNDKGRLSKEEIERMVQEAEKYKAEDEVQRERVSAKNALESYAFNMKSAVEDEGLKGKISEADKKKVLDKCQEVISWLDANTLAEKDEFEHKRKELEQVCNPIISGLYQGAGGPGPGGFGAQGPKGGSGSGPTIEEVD", "assay": "Binding competition between epitope of Hsc71 and Hsp70 for 99m-Tc labeled PanC", "settings": "various concentrations of epitope, constant 99m-Tc labeled PanC, 1 hour at room temperature"}, "BSA": {"molecular_target": "BSA (Bos taurus, UniProt P02769)", "sequence (P02769 25-607)": "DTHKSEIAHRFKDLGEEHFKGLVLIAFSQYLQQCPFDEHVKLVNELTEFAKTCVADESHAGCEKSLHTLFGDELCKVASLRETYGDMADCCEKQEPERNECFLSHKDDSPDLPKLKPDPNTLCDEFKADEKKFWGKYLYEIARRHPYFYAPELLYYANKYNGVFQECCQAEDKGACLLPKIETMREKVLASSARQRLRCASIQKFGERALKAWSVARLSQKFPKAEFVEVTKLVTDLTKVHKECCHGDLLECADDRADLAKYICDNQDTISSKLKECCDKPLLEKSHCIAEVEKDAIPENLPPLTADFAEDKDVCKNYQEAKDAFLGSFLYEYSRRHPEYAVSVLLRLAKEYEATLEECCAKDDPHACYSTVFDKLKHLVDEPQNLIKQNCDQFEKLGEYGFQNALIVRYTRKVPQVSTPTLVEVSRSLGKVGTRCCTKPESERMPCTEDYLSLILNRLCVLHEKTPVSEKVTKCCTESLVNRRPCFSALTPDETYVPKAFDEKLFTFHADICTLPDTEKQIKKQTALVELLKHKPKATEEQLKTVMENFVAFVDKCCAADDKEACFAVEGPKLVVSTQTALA", "assay": "Binding competition control: 99m-Tc labeled PanC on BSA coated wells", "settings": "various concentrations of epitope, constant 99m-Tc labeled PanC, 1 hour at room temperature"}, "PanC (DYWDTSWPLLLFGGGC)": {"molecular_target": "B2", "assay": "competition: epitope peptide at various concentrations against Hsp70-coated wells for 99mTc-PanC; competitor Hsp70", "protocol": "A 96 well plate was prepared by coating each well with Hsp70 (BioVision, Mountain View, Calif.) or BSA (control) by adding 0.5 μg/well in 100 µL of PBS and incubating overnight at 4C. The next day, each well was washed 3× with PBS. […] At the end of incubation, each well was washed 3× with PBS."}, "[1]": {"molecular_target": "B1", "assay": "99mTc-PanC (20 nM) with 100 uM biotinylated epitope and unlabeled PanC, Neutravidin bead pull-down, gamma counting"}}, "note": "Entries after “also recorded” stand apart in the source; their conditions may differ. Where no end group is shown, it is not given here. The star is where a group is joined. Biotin = O=C1N[C@H]2[C@H](CS[C@H]2CCCCC(=O)*)N1"}
{"molecule": "DYWDTSWPLLLFGGGSK (SEQ ID NO:12; PanF) (Flourescein)-amide (DYWDTSWPLLLFGGGSK-NH2; also: fluorescein label, site not given here)", "values": [{"measurement": "cellular uptake (internalization) by fluorescent microscopic visualization", "setting": "CCD-1070Sk (fibroblasts)", "result": "significant uptake wasn't seen; also recorded: but not fibroblasts"}, {"measurement": "cellular uptake (internalization) by fluorescent microscopic visualization", "setting": "DU-145 (prostate cancer)", "result": "significant cellular uptake; also recorded: Significant internalization"}, {"measurement": "cellular uptake (internalization) by fluorescent microscopic visualization", "setting": "NCI-H460 (lung cancer)", "result": "significant cellular uptake; also recorded: Significant internalization"}]}
{"molecule": "GIPPAPRGVPQIEVTF (not fully specified (N-terminus)) [synthetic epitope of Hsc71, Conserved region, amino acids 463-478 of Hsc71]", "values": [{"measurement": "suppression of PanC binding to Hsp70 by the epitope", "setting": "Hsp70", "result": "suppressed binding of PanC to Hsp70 in a concentration dependent manner"}, {"measurement": "suppression of PanC binding to Hsp70 by the epitope", "setting": "Hsp70; listed as Hsc71 epitope", "result": "interferes with PanC binding to Hsp70 in a concentration dependent manner"}, {"measurement": "suppression of PanC binding to albumin (BSA control) by the epitope", "setting": "BSA", "result": "suppressed binding of PanC to albumin approximately equally at all concentrations"}, {"measurement": "suppression of PanC binding to albumin (BSA control) by the epitope", "setting": "BSA; listed as Hsc71 epitope", "result": "suppresses binding of PanC to BSA approximately equally at all concentrations"}]}
{"molecule": "DYWDTSWPLLLFGGGS(KFAKFAK)3 [PanL]", "values": [{"measurement": "cell death (percent cytotoxicity)", "setting": "lung cancer (NCI-H460)", "result": "dose dependent increase in cell death"}, {"measurement": "cell death (percent cytotoxicity)", "setting": "prostate cancer (DU-145)", "result": "dose dependent increase in cell death"}]}
{"molecule": "B1", "values": [{"measurement": "binding result", "setting": "PanC (DYWDTSWPLLLFGGGC)", "result": "binds"}]}
{"molecule": "B2", "values": [{"measurement": "labeled/unlabeled PanC ratio above which binding saturates", "setting": "[1]", "result": "> 0.1", "unit": "%"}]}
